Kd data for one molecule are collected here from patent publication US20230272099A1 (Chugai, published 2023).

Test [1] addresses T1, hCD137 (FXa digested) (human, UniProt Q07011 24-186).
T1 construct: Factor Xa digestion and Protein A removed the Fc; also called human CD137 extracellular domain
The test is described as follows: SPR 37C, no ATP. Here is the method: (§1) Measurements of human CD137 binding were taken at 37° C. using 20 mM ACES (pH 7.4), 150 mM NaCl, 2 mM MgCl₂, and 0.05% Tween20 as running buffer. At first, antibodies were captured by interacting antibody solutions prepared in running buffer with the rabbit anti-mouse IgG (Thermo Scientific)-immobilized Series S Sensor Chip CM5 (GE Healthcare). The human CD137-binding activity in the presence of ATP and in the absence of ATP was then assessed by interacting with a human CD137 solution prepared in running buffer supplemented with a desired concentration of ATP, or a human CD137 solution prepared in running buffer without ATP. […] The chip was regenerated using 25 mM NaOH and 10 mM Glycine-HCl (pH 1.5), and measurements were performed by repeatedly capturing antibodies. Dissociation constant (KD) of the respective antibodies for human CD137 was calculated using Biacore T200 Evaluation Software 2.0. Specifically, the association rate constant ka (L/mol/s) and the dissociation rate constant kd (1/s) were calculated by global fitting of the sensorgrams obtained by measurement with the 1:1 Langmuir binding model, and the dissociation constant KD (mol/L) was calculated from these values.

In test [2] the target is T1, hCD137 (FXa digested). Briefly: SPR 37C, 100 uM ATP. The protocol:
as §1

In test [3] the target is T1, hCD137 (FXa digested). Briefly: SPR 37C, 1 uM ATP. The protocol: as §1
In test [4] the target is T1, hCD137 (FXa digested). Briefly: SPR 37C, 10 uM ATP. The protocol:
as §1

T1 sequence (Q07011 other isoform, or with tags, fused parts or gaps limits assumed): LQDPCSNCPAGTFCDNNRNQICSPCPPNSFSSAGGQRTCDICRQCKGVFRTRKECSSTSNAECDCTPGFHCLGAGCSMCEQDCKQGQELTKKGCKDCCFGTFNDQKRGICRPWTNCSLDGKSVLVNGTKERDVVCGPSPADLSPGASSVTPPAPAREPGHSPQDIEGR

B1: 20H4.9-mIgG1/20H4.9LC-mk0 (antibody)
heavy: QVQLQQWGAGLLKPSETLSLTCAVYGGSFSGYYWSWIRQSPEKGLEWIGEINHGGYVTYNPSLESRVTISVDTSKNQFSLKLSSVTAADTAVYYCARDYGPGNYDWYFDLWGRGTLVTVSSAKTTPPSVYPLAPGSAAQTNSMVTLGCLVKGYFPEPVTVTWNSGSLSSGVHTFPAVLQSDLYTLSSSVTVPSSTWPSETVTCNVAHPASSTKVDKKIVPRDCGCKPCICTVPEVSSVFIFPPKPKDVLTITLTPKVTCVVVDISKDDPEVQFSWFVDDVEVHTAQTQPREEQFNSTFRSVSELPIMHQDWLNGKEFKCRVNSAAFPAPIEKTISKTKGRPKAPQVYTIPPPKEQMAKDKVSLTCMITDFFPEDITVEWQWNGQPAENYKNTQPIMDTDGSYFVYSKLNVQKSNWEAGNTFTCSVLHEGLHNHHTEKSLSHSPGK
light: EIVLTQSPATLSLSPGERATLSCRASQSVSSYLAWYQQKPGQAPRLLIYDASNRATGIPARFSGSGSGTDFTLTISSLEPEDFAVYYCQQRSNWPPALTFGGGTKVEIKRADAAPTVSIFPPSSEQLTSGGASVVCFLNNFYPKDINVKWKIDGSERQNGVLNSWTDQDSKDSTYSMSSTLTLTKDEYERHNSYTCEATHKTSTSPIVKSFNRNEC
notes: also called NS1-mIgG1
B1: the Kd – broadly, the free concentration of one partner at which half of the binding sites on the other are occupied at equilibrium, for simple one-to-one binding – with hCD137 (FXa digested) [1] came to 61.7 nM; with hCD137 (FXa digested) [2], 53.6 nM; with hCD137 (FXa digested) [3], 56.2 nM; with hCD137 (FXa digested) [4], 54.4 nM.
